This note sets out measurements from article PMC9851723.

This data set deals with SARS-CoV-2 nucleocapsid protein (Np) (SARS-CoV-2, UniProt P0DTC9 1-419). In words: SPR. On the technique in general: SPR reads the build-up and loss of mass on a sensor chip optically.

B1: A48t-T20-A61t (DNA-BC) (ssDNA)
DNA: TTCCTTAGGGGCACCGCTACATTTTTTTTTTTTTTTTTTTTTACCTTTACAGATCGGATTCTGTGGGGCG
The Kd is the concentration at which binding is half-saturated. High values mean weaker binding, low ones tighter binding. Consider B1, for which binding was put at a Kd of 1.04 nM.
